Drawing on JPH11332563A, this text covers Kd, koff and kon for one substance.

The target in this experiment is ヒト可溶性CD4 (human soluble CD4 prepared in Example 2, C-terminal FLAG-tag, from COS7 cells) (human) (UniProt P01730). Description: SPR (BIAcore 2000), antibody amine-coupled on CM5, soluble CD4 as analyte.

In turn, 13B8.2抗体 (イムノテック社) (antibody) showed a Kd of 7.58 nM, a koff of 0.000138 s⁻¹ and a kon of 18200 M⁻¹ s⁻¹.
